Measurements reported in the supplement of paper PMC11136658.

Test system: peptide library, one residue held at a place counted from the Y acceptor
Experiment: relative phosphorylation of the sub-library (ratio to the mean residue at this position); higher = residue favoured
Summary of the method: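 Purified recombinant kinases were incubated for 90 min in 384-well plates with biotinylated Tyr-centred peptide library mixtures, each fixing one residue at one position from −5 to +5, plus 50 μM ATP with γ-32P-ATP. Peptides were captured on streptavidin membranes, rinsed and quantified by phosphorimaging and ImageQuant. Intensities were normalized per position by the sum of the 18 (or 16, Ser/Thr-free library) randomized residues and multiplied by that number. Values give phosphorylation relative to the mean randomized residue.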

Chain of ITK, construct: aa352-end, human (Q08881 352-620, looked up): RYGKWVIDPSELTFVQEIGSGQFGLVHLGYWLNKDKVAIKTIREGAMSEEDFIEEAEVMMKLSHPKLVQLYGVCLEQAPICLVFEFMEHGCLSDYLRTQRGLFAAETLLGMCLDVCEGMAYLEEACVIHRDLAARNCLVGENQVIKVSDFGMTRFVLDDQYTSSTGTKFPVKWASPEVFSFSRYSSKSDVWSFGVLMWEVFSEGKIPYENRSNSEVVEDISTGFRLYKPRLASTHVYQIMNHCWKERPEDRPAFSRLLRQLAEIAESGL
Chain of JAK3, construct: aa795-end, human (P52333 795-1124, looked up): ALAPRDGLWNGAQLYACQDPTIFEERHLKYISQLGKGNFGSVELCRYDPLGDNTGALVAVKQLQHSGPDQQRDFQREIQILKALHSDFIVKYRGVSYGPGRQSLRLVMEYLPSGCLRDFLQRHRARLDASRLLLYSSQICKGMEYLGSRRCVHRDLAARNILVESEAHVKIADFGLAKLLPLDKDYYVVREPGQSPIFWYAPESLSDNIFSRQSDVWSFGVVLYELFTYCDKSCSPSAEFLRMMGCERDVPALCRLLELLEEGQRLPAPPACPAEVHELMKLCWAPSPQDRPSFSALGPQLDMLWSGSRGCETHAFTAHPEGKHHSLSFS

JAK3, construct: aa795-end, human (from UniProt P52333)
relative phosphorylation
Conditions	at +1	at +2	at +3	at +4	at +5	at -1	at -2	at -3	at -4	at -5
A fixed	0.882	0.772	0.718	0.933	1.08	0.848	0.973	1.02	1.07	1.1
D fixed	0.438	0.975	0.429	0.902	0.84	3	1.02	1.3	1.08	1.09
E fixed	0.497	0.834	0.342	0.687	0.843	2.01	1.05	1.18	1.22	0.94
F fixed	2.22	1.17	1.18	1.07	0.874	0.763	0.839	0.962	1.05	1.02
G fixed	0.36	0.532	0.643	1.08	1.1	0.699	1.24	1.07	1.07	1.2
H fixed	1.44	0.984	1.19	1.01	0.967	0.968	1.03	1.11	1.04	1.12
I fixed	1.17	0.644	1.54	0.676	0.66	0.817	0.597	0.632	0.682	0.736
K fixed	0.436	0.82	0.794	1.29	1.24	0.493	0.982	0.857	0.91	1.12
L fixed	0.877	0.998	1.71	0.839	0.771	0.69	0.862	0.707	0.726	0.793
M fixed	1.06	1.21	1.5	0.883	0.852	0.593	0.86	0.72	0.847	0.828
N fixed	0.54	1.17	0.7	0.965	1.22	1.31	1.31	1.41	1.04	0.946
P fixed	0.455	0.945	0.773	1.02	1.22	0.759	1.07	1.07	1.11	1.03
Q fixed	1.04	1.02	0.883	1.22	1.13	0.874	1.31	1.15	1.11	0.971
R fixed	0.665	0.876	1.03	1.3	1.46	0.55	1.1	1.01	1.15	1.14
S fixed	0.697	0.848	0.916	1.11	1.4	0.831	1.22	1.21	1.07	1.05
T fixed	0.73	0.902	1.15	0.972	0.959	0.935	0.989	1.07	0.839	0.973
V fixed	1.65	0.807	1.2	0.819	0.716	0.842	0.671	0.72	0.7	0.77
W fixed	2.27	2.25	1.37	1.31	1.03	0.791	1.09	1.1	1.19	1.19
pThr fixed	0.626	1.2	0.391	0.528	0.682	2.23	1	1.16	1.01	0.871
pTyr fixed	1.04	0.925	0.369	0.583	0.725	2.37	1.05	1.32	1.01	0.825

ITK, construct: aa352-end, human (from UniProt Q08881)
relative phosphorylation
Conditions	at +1	at +2	at +3	at +4	at +5	at -1	at -2	at -3	at -4	at -5
A fixed	1.81	1.06	0.772	0.857	1.11	0.551	1.01	0.947	1.03	0.997
D fixed	0.732	0.669	0.309	0.622	0.886	0.754	1.41	1.36	1.33	1.21
E fixed	1.51	1.13	0.274	0.821	0.792	0.709	1.51	1.52	1.38	1.08
F fixed	0.572	1.07	1.85	0.763	0.705	1.81	0.627	0.793	0.672	0.935
G fixed	1.08	0.639	0.788	1.26	1.1	0.384	1.43	1.21	1.17	1.13
H fixed	0.606	0.801	2.11	0.96	0.926	0.991	0.812	1.03	1.01	1.13
I fixed	1.51	1.12	0.913	0.996	0.332	2.5	0.548	0.511	0.759	0.718
K fixed	0.337	0.697	0.722	1.34	1.39	0.291	0.703	0.694	0.953	1.06
L fixed	0.606	0.908	0.832	0.771	0.72	2.16	0.969	0.666	0.743	0.757
M fixed	1.17	0.976	1.06	1.04	1.24	1.22	0.645	0.752	0.816	0.896
N fixed	0.361	1.06	0.757	0.846	1.06	0.585	1.33	1.39	1.15	1.24
P fixed	0.172	0.791	0.868	1.08	1.49	0.48	1.43	1.27	1.15	1.07
Q fixed	1.03	0.901	0.885	1.19	1.15	0.648	1.24	1.16	1.39	1.24
R fixed	0.432	0.987	1.41	1.32	1.55	0.308	0.64	0.774	1.05	1.14
S fixed	1.4	1.22	0.997	1.07	1.14	0.489	1.28	1.31	1.05	1.01
T fixed	1.36	1.45	0.767	1.12	1.01	1.19	1.05	1.1	0.807	0.902
V fixed	2.08	1.24	1.04	1.16	0.772	1.57	0.764	0.752	0.84	0.797
W fixed	1.23	1.27	1.65	0.785	0.634	1.36	0.605	0.759	0.706	0.692
pThr fixed	2.18	2.7	0.354	0.462	0.524	1.68	1.08	0.871	1.02	0.887
pTyr fixed	1.11	3.73	0.518	0.754	0.65	1.48	1.02	1.2	1.23	2.07

FGR, construct: Full length, human (from UniProt P09769)
relative phosphorylation
Conditions	at +1	at +2	at +3	at +4	at +5	at -1	at -2	at -3	at -4	at -5
A fixed	2.2	1.05	0.869	0.85	0.72	0.929	0.952	0.88	1.03	0.985
D fixed	0.746	0.588	0.464	0.599	0.901	1.07	1.48	1.52	1.29	1.1
E fixed	0.732	0.949	0.432	0.759	0.875	1.89	1.37	1.52	1.36	0.85
F fixed	0.643	1.12	2.33	1.21	1.25	0.601	0.711	0.915	1.07	1.07
G fixed	2.67	0.888	0.927	1.31	0.896	0.558	1.5	1.15	1.15	1.24
H fixed	0.762	0.846	0.969	0.953	0.936	1.45	0.995	0.999	0.933	0.966
I fixed	0.827	0.906	1.3	0.792	0.71	1.86	0.626	0.635	0.829	0.907
K fixed	0.485	0.947	0.664	1.16	1.27	0.32	0.641	0.792	0.856	0.991
L fixed	0.669	0.903	0.954	0.884	0.831	1.02	0.747	0.746	1.07	0.939
M fixed	1.01	1.02	0.806	1.05	0.751	0.754	0.576	0.799	0.83	0.945
N fixed	0.757	1.02	0.666	0.928	1.14	0.683	1.56	1.26	0.798	1.06
P fixed	0.226	0.839	1.02	1.2	0.977	2.09	0.878	1.02	1.17	1.15
Q fixed	0.959	0.987	0.726	1.06	0.95	0.753	1.16	0.922	1.04	0.944
R fixed	0.519	1.22	0.98	1.39	1.4	0.291	0.738	0.883	0.875	1.1
S fixed	1.52	1.14	0.882	0.862	1.11	0.572	1.43	1.19	0.841	0.875
T fixed	1.14	1.2	0.795	0.893	1.06	1.21	1.03	0.908	0.681	0.748
V fixed	0.955	0.904	1.05	0.781	0.712	1.38	0.738	0.594	0.733	0.749
W fixed	1.17	1.48	2.17	1.33	1.52	0.556	0.859	1.26	1.45	1.38
pThr fixed	1.35	1.11	0.787	0.528	0.963	1.12	1.48	1.74	1.05	1.02
pTyr fixed	1.57	1.13	0.585	0.593	0.94	0.966	2.02	1.99	1.38	1.05

MKK6, construct: Full length, human (from UniProt P52564)
relative phosphorylation
Conditions	at +1	at +2	at +3	at +4	at +5	at -1	at -2	at -3	at -4	at -5
A fixed	0.98	0.864	0.898	0.991	0.809	1.01	0.924	1.01	1.08	1.07
D fixed	1.16	1.47	1.16	1.39	1.26	1.56	1.38	1.17	1.2	1.25
E fixed	1.18	1.32	1.29	1.24	1.3	1.41	1.31	1.03	1.18	1.22
F fixed	0.736	1.04	1.08	1.11	1.06	0.746	0.926	1.05	0.926	1.03
G fixed	1.45	0.959	0.966	1.04	1.06	1.31	0.972	0.972	1.21	1.04
H fixed	0.977	1.01	0.93	1.02	0.997	1.08	1.08	1.01	1.04	1.1
I fixed	0.66	0.709	0.711	0.742	0.819	0.643	0.668	0.746	0.718	0.798
K fixed	0.807	0.912	0.926	0.872	0.845	0.724	0.915	1.02	0.841	0.922
L fixed	0.816	0.825	0.76	0.83	0.896	0.814	0.819	0.859	0.904	0.791
M fixed	0.975	0.862	0.925	0.897	0.928	0.891	0.891	0.855	0.886	0.796
N fixed	1.11	0.973	1	0.958	1.03	1.09	1.19	1.12	0.966	1.16
P fixed	1.18	1.03	1.12	1.2	1.05	1.03	0.989	0.851	1.09	1.03
Q fixed	1.02	0.887	0.978	0.934	1.08	1.11	1.01	1.25	1.07	1.01
R fixed	1.05	0.781	0.921	0.867	0.93	0.76	0.866	1.19	0.955	0.928
V fixed	0.738	0.797	0.832	0.736	0.792	0.569	0.691	0.746	0.817	0.778
W fixed	1.15	1.55	1.52	1.17	1.14	1.25	1.36	1.12	1.12	1.08
pThr fixed	1.51	1.74	1.23	1.52	1.24	1.39	1.11	1.57	1.29	1.34
pTyr fixed	1.13	1.18	1.3	1.36	1.41	1.85	1.21	1.33	1.1	1.26
